Results published in patent publication US20250223358A1 (ANTENGENE BIOLOGICS, published 2025).
Like-named read-outs stand apart in the source and are kept apart here.

Assays:
human CD3 [1] = biological target: T1, human CD3 (human, UniProt P07766 23-207; P04234 22-171; P09693 23-182); experiment: cell-based or functional assay
human CD3 [2] = biological target: T1, human CD3; experiment: FACS on Jurkat cells
human CD3 [3] = biological target: T1, human CD3; experiment: cell-based or functional assay; remark: listed apart in the source
human CD3 [4] = biological target: T1, human CD3; experiment: FACS on Jurkat cells; remark: listed apart in the source
human CD3 [5] = biological target: T1, human CD3; experiment: cell-based or functional assay; remark: listed apart in the source
human CD3 [6] = biological target: T1, human CD3; experiment: FACS on Jurkat cells; remark: listed apart in the source

T1 sequence (P07766 23-207, chain 1 of 3): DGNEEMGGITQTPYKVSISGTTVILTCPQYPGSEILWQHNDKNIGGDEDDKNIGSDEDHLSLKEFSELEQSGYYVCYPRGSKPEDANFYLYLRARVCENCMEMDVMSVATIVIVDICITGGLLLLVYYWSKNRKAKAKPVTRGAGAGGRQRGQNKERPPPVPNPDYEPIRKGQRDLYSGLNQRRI
T1 sequence (P04234 22-171, chain 2 of 3): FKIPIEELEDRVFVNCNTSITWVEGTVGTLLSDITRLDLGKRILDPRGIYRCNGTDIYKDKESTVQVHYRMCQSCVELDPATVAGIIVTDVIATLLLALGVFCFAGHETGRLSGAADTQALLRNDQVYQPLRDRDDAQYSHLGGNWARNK
T1 sequence (P09693 23-182, chain 3 of 3): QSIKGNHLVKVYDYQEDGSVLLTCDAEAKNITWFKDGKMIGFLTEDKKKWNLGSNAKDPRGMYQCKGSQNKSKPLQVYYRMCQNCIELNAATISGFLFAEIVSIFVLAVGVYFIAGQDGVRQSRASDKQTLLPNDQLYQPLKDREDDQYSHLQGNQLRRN

B1: ch40-C12-C10-E9 (antibody, V domains shown)
VH: EVQLQLSGPELVKPGASVKMSCKASGYTFSSYVIHWVKQKPGQGLEWIGYINPYNDVIKYNEKFKGKATLTSDKSSSTAYMELSSLTSEDSAVYYCARDSYYSYDGFAYWGQGTLVTVSA
VL: QIVLTQSPAIMSASPGEKVTMTCSASSSVSYMHWYQQKSGTSPKRWIYDTSKLASGVPARFSGSGSGTSYSLTISSMEAEDAATYYCQQWSSNPPTFGGGTKVEIK
EC50 (activation of Jurkat-NFAT-Luc cells) (human CD3 [1]): 24.2 nM
Top FACS signal (activation of Jurkat-NFAT-Luc cells) (human CD3 [1]): 810
EC50 (human CD3 [2]): 0.41 nM
Top FACS signal (human CD3 [2]): 2940
EC50_Fold change (Jurkat-NFAT-luciferase activation, normalized to ch40-C12-C10-E9) (human CD3 [3]): 1 fold
Top signal_Fold change (Jurkat-NFAT-luciferase activation, normalized to ch40-C12-C10-E9) (human CD3 [3]): 1 fold
EC50 (human CD3 [4]): 0.45 nM
Top FACS signal (human CD3 [4]): 1620
EC50_Fold change (Jurkat-NFAT-luciferase activation, normalized to ch40-C12-C10-E9) (human CD3 [5]): 1 fold
Top FACS signal_Fold change (Jurkat-NFAT-luciferase activation, normalized to ch40-C12-C10-E9) (human CD3 [5]): 1 fold
EC50 (human CD3 [6]): 1.01 nM
Top FACS signal (human CD3 [6]): 2540
